Experiment [1] concerns the target smORF5 (A0901_04910) (Apilactobacillus kunkeei strain A0901). As to the kind of experiment: NMR relaxation.
In experiment [2] the target is smORF7 (A0901_04830) (Apilactobacillus kunkeei strain A0901). Description: NMR relaxation.

With smORF5 (A0901_04910) (natural protein), the stoichiometry N (in general, the number of molecules, sites or subunits per partner or assembly) in experiment [1] was 2.
With smORF7 (A0901_04830) (natural protein), the stoichiometry N in experiment [2] is 2.

These data come from article doi:10.1101/2023.08.08.552426.
